# How the values were obtained:
# [1] = target: T1, DntR (DntR-His6) (Burkholderia sp. DNT, UniProt Q7WT50); assay: Thermofluor thermal stability assay; assay type: binding; settings: 100 µM sodium salicylate; inducer; apo-protein reference Tm in the 2nd table, row 4
# T1 construct: full-length, C-terminal His6 tag (DntR-His6), recombinant, modelled to H303, homotetramer
# T1 sequence (Q7WT50 1-301): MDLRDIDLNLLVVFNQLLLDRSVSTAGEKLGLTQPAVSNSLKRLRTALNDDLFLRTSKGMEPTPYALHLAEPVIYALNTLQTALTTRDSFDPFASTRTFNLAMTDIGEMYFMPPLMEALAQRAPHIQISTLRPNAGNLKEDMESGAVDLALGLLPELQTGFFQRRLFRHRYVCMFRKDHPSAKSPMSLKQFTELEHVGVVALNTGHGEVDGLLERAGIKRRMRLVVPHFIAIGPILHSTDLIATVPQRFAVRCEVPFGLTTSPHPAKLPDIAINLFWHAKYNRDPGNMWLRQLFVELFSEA
# Description: Thermofluor thermal stability assay on DntR (DntR-His6)
# [2] = target: DntR-His6 from Burkholderia sp. (wild type) (Burkholderia sp.) (UniProt Q7WT50); assay: crystal structure; apo-DntR crystals, hanging drops at 18 °C, 0.2 M sodium potassium tartrate, 0.1 M Tris-HCl pH 8.0, 5% PEG 6000; space group P6(5)22, two monomers in the asymmetric unit, tetramer from two symmetry-related dimers
# [3] = target: DntR-His6 from Burkholderia sp. (wild type) (Burkholderia sp.) (UniProt Q7WT50); assay: SAXS; static SAXS without inducer, in 1 M NaCl, 2 mM MgSO4, 1 mM DTT, 17% glycerol, 25 mM NaH2PO4-NaOH pH 8.0; apo-DntR at 3, 1 and 0.5 mg/mL (repeated as SEC-SAXS on Superdex 200), H169T-DntR at 0.7 mg/mL; fits to tetramer models
# [4] = target: DntR-His6 from Burkholderia sp. (wild type) (Burkholderia sp.) (UniProt Q7WT50); assay: SAXS; static SAXS of apo-DntR pre-incubated with 100 μM sodium salicylate (holo-DntR); repeated as SEC-SAXS with 5 mM salicylate; rigid body modelling of a tetramer
# [5] = target: H169T-DntR-His6 (Burkholderia sp.) (UniProt Q7WT50); assay: crystal structure; H169T-DntR crystals, 0.2 M sodium tartrate, 0.2 M potassium thiocyanate, 0.5 mM sodium salicylate, 0.1 M Tris pH 8.5, 20% PEG 8000; thiocyanate bound; space group P6(5)22, dimer in the asymmetric unit, tetramer from two symmetry-related dimers
# [6] = target: H169T-DntR-His6 (Burkholderia sp.) (UniProt Q7WT50); assay: SAXS; static SAXS without inducer, in 1 M NaCl, 2 mM MgSO4, 1 mM DTT, 17% glycerol, 25 mM NaH2PO4-NaOH pH 8.0; apo-DntR at 3, 1 and 0.5 mg/mL (repeated as SEC-SAXS on Superdex 200), H169T-DntR at 0.7 mg/mL; fits to tetramer models
compound,measurement,setting,value
O=C(O)c1ccccc1O [salicylate],Tm (^oC),[1],51 °C
DntR-His6 from Burkholderia sp. (wild type) (from UniProt Q7WT50 1-301) (natural protein),stoichiometry N,[2],4
same,stoichiometry N,[3],4
same,stoichiometry N,[4],4
H169T-DntR-His6 (from UniProt Q7WT50 1-301) (natural protein),stoichiometry N,[5],4
same,stoichiometry N,[6],4

# Source: article PMC4730206, “The solution configurations of inactive and activated DntR have implications for the sliding dimer mechanism of LysR transcription factors” (Scientific Reports, 2016)
